Data from paper PMC5974397, “Oligomeric states of microbial rhodopsins determined by high-speed atomic force microscopy and circular dichroic spectroscopy” (Scientific Reports, 2018).
Where “and” joins values, the source holds several entries; their conditions need not be identical. Identical values can stand only once.

Legend:
[1] = biological target: Fulvimarina rhodopsin (Fulvimarina pelagi); test: high-speed atomic force microscopy (HS-AFM); protein reconstituted in asolectin lipid membrane of limited size with MSP1E3D1, on APTES-treated mica; 20 mM Tris-HCl (pH 8.0), 50 mM NaCl, room temperature; oligomer seen subunit by subunit
[2] = biological target: Anabaena sensory rhodopsin (Anabaena sp. PCC7120); test: as above
[3] = biological target: Anabaena sensory rhodopsin (Anabaena sp. PCC7120); test: circular dichroism spectroscopy (visible, exciton coupling of retinals); protein reconstituted in POPE/POPG (3:1) liposomes, protein:lipid 1:50; 100 mM NaCl, 20 mM Tris-HCl (pH 8.0), 25 °C
[4] = biological target: Parvularcula oceani xenorhodopsin (Parvularcula oceani); test: high-speed atomic force microscopy (HS-AFM); protein reconstituted in asolectin lipid membrane of limited size with MSP1E3D1, on APTES-treated mica; 20 mM Tris-HCl (pH 8.0), 50 mM NaCl, room temperature; oligomer seen subunit by subunit
[5] = biological target: Parvularcula oceani xenorhodopsin (Parvularcula oceani); test: circular dichroism spectroscopy (visible, exciton coupling of retinals); protein reconstituted in POPE/POPG (3:1) liposomes, protein:lipid 1:50; 100 mM NaCl, 20 mM Tris-HCl (pH 8.0), 25 °C
[6] = biological target: KR2_(278) (Krokinobacter eikastus); test: high-speed atomic force microscopy (HS-AFM); protein reconstituted in asolectin lipid membrane of limited size with MSP1E3D1, on APTES-treated mica; 20 mM Tris-HCl (pH 8.0), 50 mM NaCl, room temperature; oligomer seen subunit by subunit
[7] = biological target: KR2_(278) (Krokinobacter eikastus); test: high-speed atomic force microscopy (HS-AFM); protein reconstituted in asolectin lipid membrane with MSP1E3D1, on APTES-treated mica; acidic solution: 20 mM citrate-NaOH (pH 4.3), 50 mM NaCl, room temperature
[8] = biological target: Krokinobacter eikastus rhodopsin 2 (Krokinobacter eikastus); test: circular dichroism spectroscopy (visible, exciton coupling of retinals); protein solubilized in DDM
[9] = biological target: Krokinobacter eikastus rhodopsin 2 (Krokinobacter eikastus); test: high-speed atomic force microscopy (HS-AFM); protein reconstituted in asolectin lipid membrane of limited size with MSP1E3D1, on APTES-treated mica; 20 mM Tris-HCl (pH 8.0), 50 mM NaCl, room temperature; oligomer seen subunit by subunit
[10] = biological target: Quadrisphaera actinorhodopsin (Quadrisphaera sp. R2A-380-A); test: as above
[11] = biological target: Kineococcus radiotolerans actinorhodopsin (Kineococcus radiotolerans); test: as above
[12] = biological target: T1, Natronomonas pharaonis sensory rhodopsin II (Natronomonas pharaonis), P42196; test: as above; details: remark: other sources report otherwise
T1 chain: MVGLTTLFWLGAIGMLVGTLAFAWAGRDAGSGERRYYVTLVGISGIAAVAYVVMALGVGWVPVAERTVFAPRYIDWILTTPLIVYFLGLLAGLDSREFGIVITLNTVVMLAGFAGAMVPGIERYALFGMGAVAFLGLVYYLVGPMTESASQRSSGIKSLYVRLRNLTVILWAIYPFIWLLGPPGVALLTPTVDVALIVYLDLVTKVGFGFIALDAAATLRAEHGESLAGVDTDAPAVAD

[13] = biological target: the molecule itself; test: as above

Fulvimarina rhodopsin (natural protein)
stoichiometry N [1]: 5

Anabaena sensory rhodopsin (natural protein)
stoichiometry N [2]: 3
stoichiometry N [3]: 3

Parvularcula oceani xenorhodopsin (natural protein)
stoichiometry N [4]: 3
stoichiometry N [5]: 3

KR2_(278) (domain or fragment)
stoichiometry N [6]: 5
stoichiometry N [7]: 5

Krokinobacter eikastus rhodopsin 2 (natural protein)
stoichiometry N [8]: 5
stoichiometry N [9]: 5

Quadrisphaera actinorhodopsin (natural protein)
stoichiometry N [10]: 5

Kineococcus radiotolerans actinorhodopsin (natural protein)
stoichiometry N [11]: 5

B1: Natronomonas pharaonis sensory rhodopsin II, P42196 1-239 (natural protein)
chain: MVGLTTLFWLGAIGMLVGTLAFAWAGRDAGSGERRYYVTLVGISGIAAVAYVVMALGVGWVPVAERTVFAPRYIDWILTTPLIVYFLGLLAGLDSREFGIVITLNTVVMLAGFAGAMVPGIERYALFGMGAVAFLGLVYYLVGPMTESASQRSSGIKSLYVRLRNLTVILWAIYPFIWLLGPPGVALLTPTVDVALIVYLDLVTKVGFGFIALDAAATLRAEHGESLAGVDTDAPAVAD
modifications: here or on the partner: retinal chromophore; retinal chromophore
stoichiometry N [12]: 3

B2: Natronomonas pharaonis halorhodopsin (natural protein, UniProt P15647 1-291, looked up)
chain: MTETLPPVTESAVALQAEVTQRELFEFVLNDPLLASSLYINIALAGLSILLFVFMTRGLDDPRAKLIAVSTILVPVVSIASYTGLASGLTISVLEMPAGHFAEGSSVMLGGEEVDGVVTMWGRYLTWALSTPMILLALGLLAGSNATKLFTAITFDIAMCVTGLAAALTTSSHLMRWFWYAISCACFLVVLYILLVEWAQDAKAAGTADMFNTLKLLTVVMWLGYPIVWALGVEGIAVLPVGVTSWGYSFLDIVAKYIFAFLLLNYLTSNESVVSGSILDVPSASGTPADD
modifications: retinal chromophore
notes: Halorhodopsin (chloride pump) from Natronomonas pharaonis; also called NpHR
stoichiometry N [13]: 3

B3: Gloeobacter rhodopsin (natural protein, Gloeobacter violaceus PCC 7421, UniProt Q7NP59 1-298, looked up)
chain: MLMTVFSSAPELALLGSTFAQVDPSNLSVSDSLTYGQFNLVYNAFSFAIAAMFASALFFFSAQALVGQRYRLALLVSAIVVSIAGYHYFRIFNSWDAAYVLENGVYSLTSEKFNDAYRYVDWLLTVPLLLVETVAVLTLPAKEARPLLIKLTVASVLMIATGYPGEISDDITTRIIWGTVSTIPFAYILYVLWVELSRSLVRQPAAVQTLVRNMRWLLLLSWGVYPIAYLLPMLGVSGTSAAVGVQVGYTIADVLAKPVFGLLVFAIALVKTKADQESSEPHAAIGAAANKSGGSLIS
modifications: retinal chromophore
notes: Gloeobacter rhodopsin (GR), proton pump, from Gloeobacter violaceus PCC 7421; also called GR; rhodopsin from Gloeobacter violaceus PCC 7421; not shown: His6, C-terminal, kept
stoichiometry N [13]: 5

B4: green-absorbing proteorhodopsin (natural protein, uncultured marine gamma proteobacterium, UniProt Q9F7P4 18-249, looked up)
chain: AGGGDLDASDYTGVSFWLVTAALLASTVFFFVERDRVSAKWKTSLTVSGLVTGIAFWHYMYMRGVWIETGDSPTVFRYIDWLLTVPLLICEFYLILAAATNVAGSLFKKLLVGSLVMLVFGYMGEAGIMAAWPAFIIGCLAWVYMIYELWAGEGKSACNTASPAVQSAYNTMMYIIIFGWAIYPVGYFTGYLMGDGGSALNLNLIYNLADFVNKILFGLIIWNVAVKESSNA
modifications: retinal chromophore
notes: Green-absorbing proteorhodopsin (GPR), proton pump, from uncultured marine gamma proteobacterium; Pentamers (76%) and hexamers (24%) coexist in the lipid; copies gives the dominant form; also called green proteorhodopsin
stoichiometry N [13]: 5 and 6
